Laboratory results as given in article PMC10689493 (Nature Communications, 2023).

B1: CC40.8 mAb (antibody, V domains shown)
VH: EVQLLESGGGLVQPGGSLRLSCAASGFTFSSYVMTWARQAPGKGLEWVSAISGTGYTYYADSVKGRFTVSRDNSKNTLFLQMSSLRAEDTAVYYCAITMAPVVWGQGTTVTVSS
VL: SYELTQPPSVSVSPGQTARITCSGDALPKRYAYWYQQKSGQAPILVIYEDKKRPSGIPERLSGSKSGTVATLTISGAQVEDEADYYCYSTDSSGNHAVFGGGTQLTVL
notes: IgG; source: Expi293F, transfected, purified (Protein A)
B2: S2P6 mAb (antibody, V domains shown)
VH: EVQLVQSGAEVKKPGASVKVSCKASGYTFTSQYMHWVRQAPGQGLEWIGIINPSGVHTSYAQKFQGRVTLTRDTSTSTLYMELSSLRSEDTAVYYCARGSPKGAFDYWGQGTLVTVSS
VL: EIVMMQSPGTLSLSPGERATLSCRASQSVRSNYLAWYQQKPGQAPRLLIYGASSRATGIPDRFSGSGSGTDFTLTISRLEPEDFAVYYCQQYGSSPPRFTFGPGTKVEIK
notes: IgG; IGHV1-46/IGKV3-20; source: Expi293F, transfected, purified (Protein A)

Experiments:
[1] = biological target: SARS-CoV-1 Spike protein, 2 P (SARS-CoV-1, isolate , UniProt P59594, stabilised); assay: ELISA; settings: both partners purified
[2] = biological target: MERS Spike protein, 2 P (MERS-CoV, isolate  (entry: …, UniProt K9N5Q8, stabilised)); assay: ELISA; settings: both partners purified

| Binder | binding result [1] | binding result [2] |
| --- | --- | --- |
| B1 | binds |  |
| B2 | binds | binds |
